# Experimental data: article PMC4873976, “Structural basis for haem piracy from host haemopexin by Haemophilus influenzae” (Nature Communications, 2016)
# T1: Haemopexin (Oryctolagus cuniculus, UniProt P20058)
# T1 chain: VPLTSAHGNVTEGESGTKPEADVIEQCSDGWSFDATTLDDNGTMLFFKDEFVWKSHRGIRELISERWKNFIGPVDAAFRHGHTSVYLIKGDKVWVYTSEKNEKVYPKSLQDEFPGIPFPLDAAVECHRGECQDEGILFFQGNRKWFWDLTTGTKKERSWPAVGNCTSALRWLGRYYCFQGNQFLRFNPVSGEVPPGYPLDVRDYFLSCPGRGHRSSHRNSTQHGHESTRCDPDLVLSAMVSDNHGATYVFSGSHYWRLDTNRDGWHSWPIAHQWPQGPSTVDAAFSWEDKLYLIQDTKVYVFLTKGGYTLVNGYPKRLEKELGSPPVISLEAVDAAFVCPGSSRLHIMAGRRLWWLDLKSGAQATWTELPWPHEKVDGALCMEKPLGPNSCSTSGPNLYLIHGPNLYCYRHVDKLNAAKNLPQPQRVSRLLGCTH
# B1: HxuA (protein)
# chain: STQGLPQQGLPQQGLPQEDKVVVGQATFDKTIADKMTINQTSDKVQINWHSFDIGQNKEVEFKQPSENSVAYNRVTGGNASQIQGKLTANGKVYLANPNGVIITKGAEINVAGLLATTKDLEQISENSNSYQFTRKTKDRQVVKEGQVINEGEIKAKDFVVLNGDEVINKGNINVEKNSTINGKVYLSSGYNFTFTLSDSGISVALEDNTVRGIVQNEGSIKAGEITLSAKGRKEALDSLVMNNGVLEATKVSNRNGKVVLSADNVQLNNESNIKGEIVNFGTEVTSNEDKKLKITSKTGSKVTSPKINFKGKSVNINGNFGRENSGTHYNEERKTLNTEVNIDVPGAENIRIADDKDNTETDSFIQTEALSSLLANNGKVNLKGNDVNISGNINIDSFRGTDSLLKLTNQGHINIDHADINSKGRLFVVTSLQNDVDFKSNITITDSKINLGNGAMGLGRSVNEDDYATRWKRAEKSQRKKFNVDMRNVVFNQVDEVILAGGFEKVNLDKIVATGQTNFYIDGGVSRNNSRYEYGVLDLDYRTQLSELEQGRRRWRYYRDLDLDMNKAYLYRFDLFAKNNSGRSTIKGTEINISNSNINLKNGFVHLLAENIKLDNSKVDITFDKDNSQDTLAQTNRLGMNGKVSMINSHIKIVGDEKEGISPTGTYATMFLIGELIGEKSSIFVKSHQGYTFKTDGDTKIAGKNSKEDLKITAINTGGRAAEEVLINGALGSADNDANIANMAFTIGDSANTKTTIENADITALAPNGGTAYLSSKDVEIEVKPNSNFTFFELPREKNLNQTKINGASTKLSERGFARLYDKINGVRASNLSAEQLNVTDASEKIINTKLVSSLDVEKLVSVAVCDAGNGCEEQQFGDKGNNTKVSVGELEAEQ
# Biological target: T1, Haemopexin
# Test: ITC; given as Ka
binder,measurement,value
B1,Kd,< 1 nM
